In publication PMC2659760 one finds Km, kcat and kcat/Km data, which are given here for one protein.

Substrate in series [1]: NCc1ccccc1
Briefly: Substrate activity with BPAO. Format: biochemical, bovine. Conditions: other: UV-vis spectrophotometry, pH 7.2 phosphate buffer, 30 °C.

Substrate in series [2]: COc1ccc2cc(CN)ccc2c1
Briefly: Substrate activity with BPAO. The settings on record: other: UV-vis spectrophotometry, pH 7.2 phosphate buffer, 30 °C. Format: biochemical, bovine.

B1: bovine plasma amine oxidase (BPAO) (Bos taurus) (protein)
chain: REEGGVGSEEGVGKQCHPSLPPRCPSRSPSDQPWTHPDQSQLFADLSREELTTVMSFLTQQLGPDLVDAAQARPSDNCVFSVELQLPPKAAALAHLDRGSPPPAREALAIVFFGGQPQPNVTELVVGPLPQPSYMRDVTVERHGGPLPYYRRPVLLREYLDIDQMIFNRELPQAAGVLHHCCSYKQGGQKLLTMNSAPRGVQSGDRSTWFGIYYNITKGGPYLHPVGLELLVDHKALDPADWTVQKVFFQGRYYENLAQLEEQFEAGQVNVVVIPDDGTGGFWSLKSQVPPGPTPPLQFHPQGPRFSVQGNRVASSLWTFSFGLGAFSGPRVFDVRFQGERLAYEISLQEAGAVYGGNTPAAMLTRYMDSGFGMGYFATPLIRGVDCPYLATYMDWHFVVESQTPKTLHDAFCVFEQNKGLPLRRHHSDFLSHYFGGVAQTVLVFRSVSTMLNYDYVWDMVFYPNGAIEVKLHATGYISSAFLFGAARRYGNQVGEHTLGPVHTHSAHYKVDLDVGGLENWVWAEDMAFVPTAIPWSPEHQIQRLQVTRKQLETEEQAAFPLGGASPRYLYLASKQSNKWGHPRGYRIQTVSFAGGPMPQNSPMERAFSWGRYQLAITQRKETEPSSSSVFNQNDPWTPTVDFSDFINNETIAGKDLVAWVTAGFLHIPHAEDIPNTVTVGNGVGFFLRPYNFFDQEPSMDSADSIYFREGQDAGSCEINPLACLPQAATCAPDLPVFSHGGYPEY
Turning to B1, in series [1], the Km is listed as 1.77±0.24 mM mM, the kcat came to 1.23 ± 0.06 s⁻¹ and the kcat/Km turned out to be 695 M⁻¹ s⁻¹. In addition, in series [2], the Km amounted to 0.74±0.15 mM mM, the kcat came to 1.15 ± 0.06 s⁻¹ and the specificity constant (kcat/Km) came out at 1550 M⁻¹ s⁻¹.

In general, kcat refers to the maximal rate divided by the concentration of active sites. As a reminder, the kcat/Km is the turnover number divided by the Michaelis constant.
